Measured values as given in publication PMC10500007 (2023).

Columns and labels:
[1] = target: T1, human integrin αvβ6 (soluble, construct not stated) (human, UniProt P06756 31-1048; P18564 22-709); test: BLI
T1 chain 1: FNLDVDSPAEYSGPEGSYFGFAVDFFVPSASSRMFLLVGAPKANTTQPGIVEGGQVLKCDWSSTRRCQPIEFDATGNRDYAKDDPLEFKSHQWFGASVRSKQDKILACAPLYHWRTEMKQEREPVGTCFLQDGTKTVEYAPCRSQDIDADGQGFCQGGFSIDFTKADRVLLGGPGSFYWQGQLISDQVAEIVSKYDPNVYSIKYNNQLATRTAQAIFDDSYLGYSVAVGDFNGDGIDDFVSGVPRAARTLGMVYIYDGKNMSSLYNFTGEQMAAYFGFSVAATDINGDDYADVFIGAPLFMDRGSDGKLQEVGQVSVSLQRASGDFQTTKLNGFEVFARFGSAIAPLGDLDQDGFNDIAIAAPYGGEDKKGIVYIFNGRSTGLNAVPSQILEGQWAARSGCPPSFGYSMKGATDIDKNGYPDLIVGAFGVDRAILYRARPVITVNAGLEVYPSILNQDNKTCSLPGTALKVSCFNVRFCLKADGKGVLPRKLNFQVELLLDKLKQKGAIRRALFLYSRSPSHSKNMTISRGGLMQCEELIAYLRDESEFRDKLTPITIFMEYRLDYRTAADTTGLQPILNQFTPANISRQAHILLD
T1 chain 2: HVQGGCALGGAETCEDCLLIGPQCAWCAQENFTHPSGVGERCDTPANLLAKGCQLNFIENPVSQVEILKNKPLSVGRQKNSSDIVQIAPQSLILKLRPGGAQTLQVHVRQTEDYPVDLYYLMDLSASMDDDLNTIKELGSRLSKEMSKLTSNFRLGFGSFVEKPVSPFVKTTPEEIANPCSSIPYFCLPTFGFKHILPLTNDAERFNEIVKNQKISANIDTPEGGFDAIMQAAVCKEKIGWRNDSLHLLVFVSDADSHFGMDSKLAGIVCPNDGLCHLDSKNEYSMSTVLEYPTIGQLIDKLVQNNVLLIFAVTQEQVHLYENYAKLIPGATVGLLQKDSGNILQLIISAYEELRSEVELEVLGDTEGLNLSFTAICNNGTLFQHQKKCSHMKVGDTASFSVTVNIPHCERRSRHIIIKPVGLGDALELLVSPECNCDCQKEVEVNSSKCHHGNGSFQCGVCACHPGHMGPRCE

[2] = target: recombinant human integrin αvβ6 headpiece (Expi293F) (human, UniProt P06756 31-429; P18564 130-371, I287C); test: ELISA; competition with hLAP1
α5β1 = α5β1 (Homo sapiens); test: BLI
Chain of α5β1 (Homo sapiens) (chain, as listed by the source, chain 1 of 2): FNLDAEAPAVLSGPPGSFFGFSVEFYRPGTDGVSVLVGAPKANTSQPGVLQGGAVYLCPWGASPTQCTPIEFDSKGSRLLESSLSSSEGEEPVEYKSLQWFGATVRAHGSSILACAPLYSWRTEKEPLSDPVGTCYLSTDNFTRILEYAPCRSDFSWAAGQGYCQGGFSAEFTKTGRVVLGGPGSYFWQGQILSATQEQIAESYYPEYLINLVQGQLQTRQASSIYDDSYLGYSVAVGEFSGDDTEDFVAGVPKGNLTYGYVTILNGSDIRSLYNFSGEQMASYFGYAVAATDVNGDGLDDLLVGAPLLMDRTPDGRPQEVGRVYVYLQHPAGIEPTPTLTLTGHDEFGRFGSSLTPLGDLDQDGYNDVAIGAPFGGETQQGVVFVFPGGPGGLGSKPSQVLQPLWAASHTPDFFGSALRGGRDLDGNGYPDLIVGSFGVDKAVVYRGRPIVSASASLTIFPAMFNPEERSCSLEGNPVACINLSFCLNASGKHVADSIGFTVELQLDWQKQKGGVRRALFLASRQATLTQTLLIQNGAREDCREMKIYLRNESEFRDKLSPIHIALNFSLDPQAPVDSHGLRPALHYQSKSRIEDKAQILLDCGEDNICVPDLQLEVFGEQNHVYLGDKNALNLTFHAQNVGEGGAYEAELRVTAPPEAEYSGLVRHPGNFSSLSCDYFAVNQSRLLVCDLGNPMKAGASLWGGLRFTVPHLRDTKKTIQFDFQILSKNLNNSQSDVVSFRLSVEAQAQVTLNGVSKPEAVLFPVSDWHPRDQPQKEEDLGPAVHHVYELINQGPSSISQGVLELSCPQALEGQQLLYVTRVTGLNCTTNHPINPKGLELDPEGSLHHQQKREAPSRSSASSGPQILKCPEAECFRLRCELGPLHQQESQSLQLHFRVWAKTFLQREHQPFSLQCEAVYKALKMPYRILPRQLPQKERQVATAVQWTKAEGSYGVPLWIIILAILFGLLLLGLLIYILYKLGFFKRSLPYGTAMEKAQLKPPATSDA
Chain of α5β1 (Homo sapiens) (chain, as listed by the source, chain 2 of 2): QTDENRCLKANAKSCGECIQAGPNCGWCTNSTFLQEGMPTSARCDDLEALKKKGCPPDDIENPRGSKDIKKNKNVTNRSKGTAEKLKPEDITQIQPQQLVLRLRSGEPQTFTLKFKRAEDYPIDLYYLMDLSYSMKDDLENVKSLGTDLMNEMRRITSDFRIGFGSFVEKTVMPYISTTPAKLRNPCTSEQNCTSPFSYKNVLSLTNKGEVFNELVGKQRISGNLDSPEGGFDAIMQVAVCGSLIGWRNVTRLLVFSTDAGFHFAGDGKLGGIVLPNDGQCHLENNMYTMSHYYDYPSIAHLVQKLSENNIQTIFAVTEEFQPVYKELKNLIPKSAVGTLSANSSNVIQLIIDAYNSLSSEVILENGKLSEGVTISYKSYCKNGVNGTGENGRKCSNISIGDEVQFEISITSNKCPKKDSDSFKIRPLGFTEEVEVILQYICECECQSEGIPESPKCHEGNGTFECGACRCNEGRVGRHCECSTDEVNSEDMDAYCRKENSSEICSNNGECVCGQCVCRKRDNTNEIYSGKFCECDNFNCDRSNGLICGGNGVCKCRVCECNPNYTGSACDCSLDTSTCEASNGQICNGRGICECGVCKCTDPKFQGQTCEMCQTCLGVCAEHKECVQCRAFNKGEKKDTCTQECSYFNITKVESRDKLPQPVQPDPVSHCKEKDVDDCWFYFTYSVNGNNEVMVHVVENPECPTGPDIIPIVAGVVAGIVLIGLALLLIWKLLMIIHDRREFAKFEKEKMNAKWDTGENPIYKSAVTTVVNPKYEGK

αIIbβ3 = αIIbβ3 (Homo sapiens); test: BLI
αvβ3 = target: T2, αvβ3 (Homo sapiens); test: BLI
T2 chain 1: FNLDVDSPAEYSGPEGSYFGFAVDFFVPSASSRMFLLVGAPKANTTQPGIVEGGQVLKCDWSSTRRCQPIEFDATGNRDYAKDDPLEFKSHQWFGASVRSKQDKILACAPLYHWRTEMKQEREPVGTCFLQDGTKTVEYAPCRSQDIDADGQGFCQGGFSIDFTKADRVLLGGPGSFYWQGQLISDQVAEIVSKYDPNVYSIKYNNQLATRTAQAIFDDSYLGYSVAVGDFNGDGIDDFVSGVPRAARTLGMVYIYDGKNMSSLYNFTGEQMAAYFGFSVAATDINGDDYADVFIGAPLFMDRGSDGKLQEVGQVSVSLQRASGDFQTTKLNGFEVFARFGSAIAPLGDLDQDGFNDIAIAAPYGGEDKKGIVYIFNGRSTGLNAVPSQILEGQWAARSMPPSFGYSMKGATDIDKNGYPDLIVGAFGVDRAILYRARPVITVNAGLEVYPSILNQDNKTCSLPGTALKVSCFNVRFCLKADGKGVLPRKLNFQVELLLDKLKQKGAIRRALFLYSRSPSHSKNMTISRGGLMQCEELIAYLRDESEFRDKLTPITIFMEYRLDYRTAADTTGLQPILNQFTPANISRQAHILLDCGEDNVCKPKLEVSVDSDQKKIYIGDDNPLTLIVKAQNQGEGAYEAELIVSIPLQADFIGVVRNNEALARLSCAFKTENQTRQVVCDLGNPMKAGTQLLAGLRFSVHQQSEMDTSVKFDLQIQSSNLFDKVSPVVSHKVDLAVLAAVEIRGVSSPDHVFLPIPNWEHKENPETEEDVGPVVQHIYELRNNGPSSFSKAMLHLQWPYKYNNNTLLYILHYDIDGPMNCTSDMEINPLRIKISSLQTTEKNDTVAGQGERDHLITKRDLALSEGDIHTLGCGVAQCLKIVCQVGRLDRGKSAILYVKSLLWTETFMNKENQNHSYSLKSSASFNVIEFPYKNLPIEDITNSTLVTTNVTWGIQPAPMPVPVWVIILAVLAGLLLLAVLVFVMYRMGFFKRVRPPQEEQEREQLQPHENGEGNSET
T2 chain 2: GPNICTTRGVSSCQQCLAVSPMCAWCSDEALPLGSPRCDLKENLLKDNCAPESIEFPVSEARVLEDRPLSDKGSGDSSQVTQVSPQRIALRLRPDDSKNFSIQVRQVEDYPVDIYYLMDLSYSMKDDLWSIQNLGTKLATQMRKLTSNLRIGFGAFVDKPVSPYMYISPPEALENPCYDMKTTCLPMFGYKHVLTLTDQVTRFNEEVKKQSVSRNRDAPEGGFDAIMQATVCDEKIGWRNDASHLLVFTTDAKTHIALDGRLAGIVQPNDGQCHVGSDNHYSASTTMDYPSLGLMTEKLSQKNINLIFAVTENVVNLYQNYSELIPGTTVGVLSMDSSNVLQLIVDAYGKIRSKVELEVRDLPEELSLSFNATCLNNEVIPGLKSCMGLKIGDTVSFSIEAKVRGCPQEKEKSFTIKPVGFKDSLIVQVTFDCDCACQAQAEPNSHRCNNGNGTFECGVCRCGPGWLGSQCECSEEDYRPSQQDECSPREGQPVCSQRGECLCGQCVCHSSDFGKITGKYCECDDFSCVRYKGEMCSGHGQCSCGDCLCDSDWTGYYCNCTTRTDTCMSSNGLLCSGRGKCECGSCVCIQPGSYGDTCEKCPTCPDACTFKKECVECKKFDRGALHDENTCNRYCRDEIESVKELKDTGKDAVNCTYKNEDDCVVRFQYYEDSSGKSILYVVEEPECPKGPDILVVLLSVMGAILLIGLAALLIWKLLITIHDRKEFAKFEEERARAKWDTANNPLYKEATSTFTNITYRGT

αvβ5 = target: T3, αvβ5 (Homo sapiens); test: BLI
T3 chain 1: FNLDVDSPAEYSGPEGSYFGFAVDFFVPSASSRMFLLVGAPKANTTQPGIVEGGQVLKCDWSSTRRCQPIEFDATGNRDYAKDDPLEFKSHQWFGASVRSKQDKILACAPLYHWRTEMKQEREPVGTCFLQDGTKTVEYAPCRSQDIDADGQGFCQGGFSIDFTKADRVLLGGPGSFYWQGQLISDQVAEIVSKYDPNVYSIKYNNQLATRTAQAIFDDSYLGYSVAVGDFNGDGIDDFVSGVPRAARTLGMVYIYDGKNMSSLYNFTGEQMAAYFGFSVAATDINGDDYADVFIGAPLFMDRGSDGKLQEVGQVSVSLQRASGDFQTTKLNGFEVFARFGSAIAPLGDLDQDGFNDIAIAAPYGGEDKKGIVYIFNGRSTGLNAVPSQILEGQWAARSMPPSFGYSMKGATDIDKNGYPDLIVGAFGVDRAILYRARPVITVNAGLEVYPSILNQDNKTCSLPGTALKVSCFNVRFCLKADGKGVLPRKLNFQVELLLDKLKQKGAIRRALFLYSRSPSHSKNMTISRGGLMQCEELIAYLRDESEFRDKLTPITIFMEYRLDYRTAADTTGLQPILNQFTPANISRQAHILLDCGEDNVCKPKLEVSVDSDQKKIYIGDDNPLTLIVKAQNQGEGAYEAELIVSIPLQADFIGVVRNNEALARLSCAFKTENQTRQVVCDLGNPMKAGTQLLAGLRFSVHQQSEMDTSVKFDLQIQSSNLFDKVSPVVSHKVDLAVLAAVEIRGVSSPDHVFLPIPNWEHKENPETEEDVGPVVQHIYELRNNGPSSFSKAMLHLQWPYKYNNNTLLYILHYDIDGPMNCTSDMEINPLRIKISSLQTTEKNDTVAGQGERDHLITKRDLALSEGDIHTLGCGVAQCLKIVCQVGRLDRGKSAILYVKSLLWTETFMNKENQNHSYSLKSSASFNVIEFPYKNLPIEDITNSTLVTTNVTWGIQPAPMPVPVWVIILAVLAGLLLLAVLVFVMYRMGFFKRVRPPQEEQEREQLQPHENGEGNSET
T3 chain 2: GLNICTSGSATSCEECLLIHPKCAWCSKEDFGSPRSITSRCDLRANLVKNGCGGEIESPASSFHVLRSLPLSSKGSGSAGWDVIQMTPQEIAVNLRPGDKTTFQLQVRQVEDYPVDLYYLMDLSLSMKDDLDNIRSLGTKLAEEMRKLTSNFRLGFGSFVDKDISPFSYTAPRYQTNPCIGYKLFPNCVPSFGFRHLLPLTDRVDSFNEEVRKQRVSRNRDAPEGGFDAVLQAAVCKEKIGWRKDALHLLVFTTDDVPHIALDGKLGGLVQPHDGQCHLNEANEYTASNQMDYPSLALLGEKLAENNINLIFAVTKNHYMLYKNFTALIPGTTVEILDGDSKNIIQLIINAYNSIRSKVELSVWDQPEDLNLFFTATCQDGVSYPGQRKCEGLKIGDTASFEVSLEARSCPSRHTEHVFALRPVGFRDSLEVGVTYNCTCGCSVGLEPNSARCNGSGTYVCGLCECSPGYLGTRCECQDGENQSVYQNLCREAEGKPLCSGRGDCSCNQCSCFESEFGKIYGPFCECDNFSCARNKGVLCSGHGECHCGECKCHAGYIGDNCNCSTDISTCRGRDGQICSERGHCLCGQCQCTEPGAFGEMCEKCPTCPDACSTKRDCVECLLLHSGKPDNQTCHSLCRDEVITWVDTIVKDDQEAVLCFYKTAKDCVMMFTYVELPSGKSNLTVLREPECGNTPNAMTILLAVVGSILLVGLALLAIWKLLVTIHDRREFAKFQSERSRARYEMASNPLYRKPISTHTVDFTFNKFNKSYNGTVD

αvβ1 = αvβ1 (Homo sapiens); test: BLI
Chain of αvβ1 (Homo sapiens) (chain, as listed by the source, chain 2 of 2, one chain of several): as the sequence (chain, as listed by the source, chain 2 of 2) above

α8β1 = α8β1 (Homo sapiens); test: BLI
Chain of α8β1 (Homo sapiens) (chain, as listed by the source, chain 1 of 2): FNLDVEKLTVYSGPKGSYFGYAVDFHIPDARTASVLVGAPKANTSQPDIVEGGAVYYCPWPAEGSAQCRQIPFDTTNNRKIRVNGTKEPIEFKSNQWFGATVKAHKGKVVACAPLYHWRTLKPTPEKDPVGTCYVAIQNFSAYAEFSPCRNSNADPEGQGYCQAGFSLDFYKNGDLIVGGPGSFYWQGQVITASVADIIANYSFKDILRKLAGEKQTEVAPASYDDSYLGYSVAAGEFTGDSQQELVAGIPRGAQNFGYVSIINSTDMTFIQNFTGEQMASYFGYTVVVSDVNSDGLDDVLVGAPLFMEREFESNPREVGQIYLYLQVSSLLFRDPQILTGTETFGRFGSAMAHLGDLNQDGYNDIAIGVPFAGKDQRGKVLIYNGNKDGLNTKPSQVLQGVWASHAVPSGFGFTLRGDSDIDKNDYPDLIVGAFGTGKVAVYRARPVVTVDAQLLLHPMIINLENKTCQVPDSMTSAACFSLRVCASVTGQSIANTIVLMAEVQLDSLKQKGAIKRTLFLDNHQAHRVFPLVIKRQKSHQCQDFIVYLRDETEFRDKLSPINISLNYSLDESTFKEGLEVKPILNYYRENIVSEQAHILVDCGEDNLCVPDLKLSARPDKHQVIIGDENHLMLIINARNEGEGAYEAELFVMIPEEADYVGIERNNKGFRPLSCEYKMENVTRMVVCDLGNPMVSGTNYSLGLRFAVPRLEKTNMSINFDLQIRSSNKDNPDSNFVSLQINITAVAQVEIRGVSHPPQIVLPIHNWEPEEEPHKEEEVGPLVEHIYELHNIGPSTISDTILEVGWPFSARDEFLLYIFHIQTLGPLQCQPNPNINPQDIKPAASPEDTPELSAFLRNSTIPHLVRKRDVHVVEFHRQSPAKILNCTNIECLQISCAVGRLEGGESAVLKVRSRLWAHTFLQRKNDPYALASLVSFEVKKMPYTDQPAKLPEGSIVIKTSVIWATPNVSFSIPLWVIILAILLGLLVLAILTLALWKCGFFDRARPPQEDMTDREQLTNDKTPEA
Chain of α8β1 (Homo sapiens) (chain, as listed by the source, chain 2 of 2): as the sequence (chain, as listed by the source, chain 2 of 2) above

[3] = target: T4, human integrin αvβ8 (soluble, construct not stated) (human, UniProt P06756 31-1048; P26012 43-684); test: BLI
T4 chain 1: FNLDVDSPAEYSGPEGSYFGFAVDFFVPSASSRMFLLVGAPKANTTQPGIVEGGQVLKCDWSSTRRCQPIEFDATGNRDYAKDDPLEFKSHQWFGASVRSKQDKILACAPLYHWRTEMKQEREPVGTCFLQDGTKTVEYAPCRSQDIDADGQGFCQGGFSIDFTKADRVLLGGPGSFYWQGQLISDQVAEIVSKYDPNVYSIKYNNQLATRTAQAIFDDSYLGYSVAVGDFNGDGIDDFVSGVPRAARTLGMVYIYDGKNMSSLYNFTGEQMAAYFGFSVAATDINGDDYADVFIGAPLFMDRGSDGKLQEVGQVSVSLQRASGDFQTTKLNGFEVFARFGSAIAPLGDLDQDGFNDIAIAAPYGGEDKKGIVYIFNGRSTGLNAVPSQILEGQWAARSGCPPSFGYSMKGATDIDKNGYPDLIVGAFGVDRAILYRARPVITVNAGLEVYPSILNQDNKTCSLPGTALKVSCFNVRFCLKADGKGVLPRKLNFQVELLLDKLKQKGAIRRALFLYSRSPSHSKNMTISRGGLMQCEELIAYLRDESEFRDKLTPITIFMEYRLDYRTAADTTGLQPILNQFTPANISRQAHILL
T4 chain 2: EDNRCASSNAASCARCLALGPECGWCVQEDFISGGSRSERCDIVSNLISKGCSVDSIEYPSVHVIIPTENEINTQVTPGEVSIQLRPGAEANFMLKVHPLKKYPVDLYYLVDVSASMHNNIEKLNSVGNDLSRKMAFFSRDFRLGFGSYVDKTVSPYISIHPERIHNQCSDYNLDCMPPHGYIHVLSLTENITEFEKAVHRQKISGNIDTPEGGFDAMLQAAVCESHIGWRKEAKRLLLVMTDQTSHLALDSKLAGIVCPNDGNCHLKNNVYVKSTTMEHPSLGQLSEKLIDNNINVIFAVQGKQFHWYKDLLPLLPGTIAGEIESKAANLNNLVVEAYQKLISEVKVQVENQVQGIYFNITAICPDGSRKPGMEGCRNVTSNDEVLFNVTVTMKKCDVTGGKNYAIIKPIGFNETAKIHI

[4] = target: recombinant human integrin αvβ8 headpiece (Expi293F) (human, UniProt P06756); test: ELISA; competition with hLAP1
Chain of recombinant human integrin αvβ8 headpiece (Expi293F) (P06756 whole entry, looked up): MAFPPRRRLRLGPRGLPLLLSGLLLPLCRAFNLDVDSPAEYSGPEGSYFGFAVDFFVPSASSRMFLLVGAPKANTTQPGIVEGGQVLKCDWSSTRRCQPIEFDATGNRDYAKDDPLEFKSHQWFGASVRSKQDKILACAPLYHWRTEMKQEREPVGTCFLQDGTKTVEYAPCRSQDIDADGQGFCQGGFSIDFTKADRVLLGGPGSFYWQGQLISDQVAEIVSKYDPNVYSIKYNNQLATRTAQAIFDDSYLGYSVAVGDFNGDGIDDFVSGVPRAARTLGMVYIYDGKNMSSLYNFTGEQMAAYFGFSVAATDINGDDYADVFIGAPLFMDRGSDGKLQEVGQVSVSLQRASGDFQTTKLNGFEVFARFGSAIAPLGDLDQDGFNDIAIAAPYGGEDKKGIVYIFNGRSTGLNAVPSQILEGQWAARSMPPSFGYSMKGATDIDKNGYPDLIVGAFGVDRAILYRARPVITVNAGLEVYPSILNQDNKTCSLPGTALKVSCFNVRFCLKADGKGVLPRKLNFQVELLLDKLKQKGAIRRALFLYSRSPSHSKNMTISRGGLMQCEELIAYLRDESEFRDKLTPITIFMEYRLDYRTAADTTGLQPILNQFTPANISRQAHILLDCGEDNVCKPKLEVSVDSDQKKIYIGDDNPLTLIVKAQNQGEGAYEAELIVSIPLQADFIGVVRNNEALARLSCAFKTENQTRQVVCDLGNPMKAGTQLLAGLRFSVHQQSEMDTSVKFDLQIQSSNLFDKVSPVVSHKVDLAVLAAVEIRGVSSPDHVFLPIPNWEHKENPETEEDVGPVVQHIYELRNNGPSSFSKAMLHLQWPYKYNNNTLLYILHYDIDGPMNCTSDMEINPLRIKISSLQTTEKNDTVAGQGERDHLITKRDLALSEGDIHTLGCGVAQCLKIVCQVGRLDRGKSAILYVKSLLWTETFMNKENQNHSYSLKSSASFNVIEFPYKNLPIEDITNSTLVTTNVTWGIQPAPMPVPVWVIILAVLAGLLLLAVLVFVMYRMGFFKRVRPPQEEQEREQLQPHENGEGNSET

B1: MAVI (protein)
chain: TKCVVRFNFRGDMAVIALKAVKDHLKKEGPHWNITTHNDDEVYLVVRGIHESDAKRIAKWVESTIPGISVETQCD
modifications: N/C-terminal disulfide staple (Cys3-Cys74); B8_BP_dslf with MAVY motif changed to MAVI
Kd [1]: 1.2 nM

B2: B8_BP_dslf (designed binder)
chain: TKCVVRFNFRGDMAVYALKAVKDHLKKEGPHWNITTHNDDEVYLVVRGIHESDAKRIAKWVESTIPGISVETQCD
IC50 [2]: > 500 nM
Kd [1]: > 1000 nM

B3: B8_BP-LATY (designed binder)
chain: TKCVVRFNFRGDLATYALKAVKDHLKKEGPHWNITTHNDDEVYLVVRGIHESDAKRIAKWVESTIPGISVETQCD
modifications: full-length mature chains taken as on K562 cells; soluble ectodomain possible for BLI; divalent cations, glycosylated
Kd (α5β1): > 1000 nM
Kd (αIIbβ3): > 1000 nM
Kd (αvβ3): > 1000 nM
Kd (αvβ5): > 1000 nM
Kd (αvβ1): > 1000 nM
Kd (α8β1): > 1000 nM

B4: B8_BP-LATY (designed binder)
chain: TKCVVRFNFRGDLATYALKAVKDHLKKEGPHWNITTHNDDEVYLVVRGIHESDAKRIAKWVESTIPGISVETQCD
Kd [1]: > 500 nM

B5: MATI (protein)
chain: TKCVVRFNFRGDMATIALKAVKDHLKKEGPHWNITTHNDDEVYLVVRGIHESDAKRIAKWVESTIPGISVETQCD
modifications: N/C-terminal disulfide staple (Cys3-Cys74); B8_BP_dslf with MAVY motif changed to MATI
Kd [1]: 1.2 nM

B6: B6_BP_dslf (designed binder)
chain: TKCVVRFVFRGDLAELMLRAVKDHLKKEGPHWNITSTNNGKELVVRGIHESDAKRIAKWVEKRFPRVHTETQCD
modifications: full-length mature chains taken as on K562 cells; soluble ectodomain possible for BLI; divalent cations, glycosylated
Kd (α5β1): > 200 nM
Kd (αIIbβ3): > 200 nM
Kd (αvβ3): > 200 nM
Kd (αvβ5): > 200 nM
Kd (αvβ1): > 200 nM
Kd (α8β1): > 200 nM

B7: B6_BP_dslf (designed binder)
chain: TKCVVRFVFRGDLAELMLRAVKDHLKKEGPHWNITSTNNGKELVVRGIHESDAKRIAKWVEKRFPRVHTETQCD
Kd [3]: 580 nM
Kd [1]: 0.11 nM
IC50 [4]: ~80 nM
